Laboratory results: patent US20240254229A1 (Molecular Partners, published 2024)

What was measured:
[1] = target: T1, hCD33 (recombinant, construct not stated) (human, UniProt P20138 18-259, limits assumed); test: switchSENSE, CD33 and CD123 on one chip; monophasic
T1 construct: also called CD33 (Ligand 1)
Protocol: (§1) The designed ankyrin repeat proteins: DARPin® protein #20, DARPin® protein #21, DARPin® protein #22, DARPin® protein #27, DARPin® protein #40 and DARPin® protein #41 were tested in a concentration of 0.16 and 64 nM (in a buffer PE140 containing 10 mM Na2HPO4/NaH2PO4, 140 mM NaCl, 0.05% Tween20, 50 μM EDTA, 50 μM EGTA) for binding against two ligands hCD33 and hCD123, which both were immobilized simultaneously to DNA nanolevers, on the surface, at a pre-defined ratio (2:1, CD33:CD123) and 10% density (100:50) on an ADP-48-1-0 chip, where 100% density 1000 receptors/μm2 (preincubated R1-B48-CD123 and G1-A48-CD33 (100 nM) diluted in cNL-48 (dark)). Briefly the following steps were performed: [0724] Conjugation. Amine coupling of the two ligands (CD33 and CD123) to the DNA nanolever (A48, B48, respectively) and purification of the conjugates using the proFIRE® solution (Dynamic Biosensors GmbH) at 25° C. [0725] Evaluation of all the combined affinity and avidity of all different proteins to both ligands attached on the surface of an ADP chip using a DRX+ instrument (dynamic BIOSENSORS). [0726] Statistical analysis (repeatability from 2 to 5 times) including regeneration of the chip surface every concentration analyzed and long dissociation times and data were fitted using a bi-exponential global fit.

[2] = target: T2, hCD123 (recombinant, construct not stated) (human, UniProt P26951 19-305, limits assumed); test: switchSENSE, hCD33 and hCD123 co-immobilised 2:1; panel headed CD123, y axis kon
T2 construct: also called CD123 (Ligand 2)
T2 sequence (looked up): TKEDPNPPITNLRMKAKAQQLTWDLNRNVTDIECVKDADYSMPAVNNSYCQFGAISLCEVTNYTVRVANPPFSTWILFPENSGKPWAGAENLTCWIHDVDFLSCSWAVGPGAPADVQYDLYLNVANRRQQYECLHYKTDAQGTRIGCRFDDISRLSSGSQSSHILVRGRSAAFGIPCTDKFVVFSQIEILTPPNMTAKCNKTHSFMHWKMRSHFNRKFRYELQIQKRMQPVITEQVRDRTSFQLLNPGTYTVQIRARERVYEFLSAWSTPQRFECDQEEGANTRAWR
Protocol: as §1

[3] = target: T1, hCD33 (recombinant, construct not …); test: switchSENSE, hCD33 and hCD123 co-immobilised 2:1; panel headed CD33, column KD1; KD2 printed N.A.
Protocol: as §1

[4] = target: T2, hCD123 (recombinant, construct not …); test: switchSENSE, CD33 and CD123 on one chip; monophasic
Protocol: as §1

[5] = target: T1, hCD33 (recombinant, construct not …); test: switchSENSE, hCD33 and hCD123 co-immobilised 2:1; panel headed CD33
Protocol: as §1

[6] = target: T2, hCD123 (recombinant, construct not …); test: switchSENSE, hCD33 and hCD123 co-immobilised 2:1; panel headed CD123, column KD1; KD2 printed N.A.
Protocol: as §1

[7] = target: T3, human scCD3εγ (scCD3εγ_Avi-Bio) (human, biotin on the C-terminal Avi-tag (in vitro, BirA) where the biotinylated form was used); test: ribosome display selection, crude extract HTRF
T3 construct: Used for all SPR and HTRF results on human CD3; also called recombinant human CD3; human CD3
T3 chain: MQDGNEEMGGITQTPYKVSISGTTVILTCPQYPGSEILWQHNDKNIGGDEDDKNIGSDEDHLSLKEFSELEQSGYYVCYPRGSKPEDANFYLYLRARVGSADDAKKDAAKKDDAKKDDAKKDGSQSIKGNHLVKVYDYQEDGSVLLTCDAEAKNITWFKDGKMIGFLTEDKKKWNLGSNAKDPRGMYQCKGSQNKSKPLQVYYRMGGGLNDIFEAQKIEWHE

[8] = target: T4, biotinylated extracellular domain of human CD33 (SEQ ID NO: 87), Fc and Avi tagged (human, UniProt P20138 18-259, biotinylated with BirA-GST (Avi tag)); test: crude extract HTRF, 12 nM biotinylated hCD33
T4 construct: also called hCD33; human target hCD33
T4 sequence (P20138 18-259 R69G): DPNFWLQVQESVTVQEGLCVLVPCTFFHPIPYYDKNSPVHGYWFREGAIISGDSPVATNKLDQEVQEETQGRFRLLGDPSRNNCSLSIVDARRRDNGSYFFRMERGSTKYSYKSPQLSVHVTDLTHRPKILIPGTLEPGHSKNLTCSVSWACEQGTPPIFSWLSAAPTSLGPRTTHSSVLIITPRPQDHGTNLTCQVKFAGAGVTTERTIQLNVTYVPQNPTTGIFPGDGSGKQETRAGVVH
Protocol: The extract of each lysed clone was applied as a 1:900 dilution (final concentration) in PBSTB (PBS supplemented with 0.1% Tween 20® and 0.2% (w/v) BSA, pH 7.4) together with 12 nM (final concentration) biotinylated hCD33, 1:200 (final concentration) of anti-strep-D2 HTRF antibody-FRET acceptor conjugate (Cisbio) and 1:200 (final concentration) of anti-6His-Tb antibody FRET donor conjugate (Cisbio) to a well of 384 well plate and incubated for 90 minutes at RT. The HTRF was read-out on a Tecan M1000 using a 340 nm excitation wavelength and a 665±10 nm emission filter. […] An amino acid sequence of a selected ankyrin repeat domain that specifically bind to hCD33 are provided in SEQ ID NO: 15.

[9] = target: T5, biotinylated extracellular domains of human CD123 (uniprot ID 26951), Fc format (human, UniProt P26951 19-305, biotinylated); test: ribosome display selection, crude extract HTRF
T5 construct: extracellular domain
T5 sequence (looked up): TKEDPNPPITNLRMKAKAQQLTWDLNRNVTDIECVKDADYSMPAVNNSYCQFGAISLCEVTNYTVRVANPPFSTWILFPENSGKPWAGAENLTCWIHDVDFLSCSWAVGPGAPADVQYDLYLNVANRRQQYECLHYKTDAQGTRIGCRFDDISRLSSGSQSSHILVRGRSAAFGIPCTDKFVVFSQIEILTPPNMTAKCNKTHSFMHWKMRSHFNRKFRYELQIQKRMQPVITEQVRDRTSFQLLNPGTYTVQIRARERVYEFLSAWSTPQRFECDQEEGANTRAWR

[10] = target: T4, biotinylated extracellular domain of …; test: SPR (ProteOn XPR36), target on GLC chip
[11] = target: T6, extracellular domain of human CD70 (SEQ ID NO: 89), hCD70-Fc-trimer, ACRO Biosystems (human, UniProt P32970 52-193, chemically biotinylated where the biotinylated form was used); test: SPR (ProteOn XPR36), target on GLC chip
T6 construct: also called human CD70-Fc-trimer; Bio.CD70
T6 sequence: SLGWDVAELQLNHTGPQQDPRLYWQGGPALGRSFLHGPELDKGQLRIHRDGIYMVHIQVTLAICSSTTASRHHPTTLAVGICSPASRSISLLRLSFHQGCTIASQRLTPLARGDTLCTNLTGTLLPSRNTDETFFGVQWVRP

[12] = target: T7, human serum albumin (human, UniProt P02768 25-609); test: SPR (ProteOn XPR36), target on GLC chip
T7 construct: also called HSA; SA
T7 sequence (P02768 25-609 limits assumed): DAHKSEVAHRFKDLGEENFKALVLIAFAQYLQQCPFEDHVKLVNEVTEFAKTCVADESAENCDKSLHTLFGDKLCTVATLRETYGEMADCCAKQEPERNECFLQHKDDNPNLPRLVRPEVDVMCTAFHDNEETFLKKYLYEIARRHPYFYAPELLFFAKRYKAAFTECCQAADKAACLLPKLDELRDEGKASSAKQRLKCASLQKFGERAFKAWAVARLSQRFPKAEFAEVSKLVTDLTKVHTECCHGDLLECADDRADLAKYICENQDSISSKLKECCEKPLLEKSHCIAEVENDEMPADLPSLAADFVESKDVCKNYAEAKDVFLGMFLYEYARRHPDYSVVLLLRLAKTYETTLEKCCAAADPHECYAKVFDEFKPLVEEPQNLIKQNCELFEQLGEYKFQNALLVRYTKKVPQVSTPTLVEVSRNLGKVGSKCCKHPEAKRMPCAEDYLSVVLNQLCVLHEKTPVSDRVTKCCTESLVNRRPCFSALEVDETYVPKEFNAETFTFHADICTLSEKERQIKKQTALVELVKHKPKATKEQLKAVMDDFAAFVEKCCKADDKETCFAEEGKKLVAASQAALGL

[13] = target: T8, biotinylated extracellular domain of human CD123 (SEQ ID NO: 88), Fc and Avi tagged (human, UniProt P26951 19-303, biotinylated with BirA-GST (Avi tag)); test: SPR (ProteOn XPR36), target on GLC chip, DARPin as analyte
T8 construct: also called hCD123
T8 sequence: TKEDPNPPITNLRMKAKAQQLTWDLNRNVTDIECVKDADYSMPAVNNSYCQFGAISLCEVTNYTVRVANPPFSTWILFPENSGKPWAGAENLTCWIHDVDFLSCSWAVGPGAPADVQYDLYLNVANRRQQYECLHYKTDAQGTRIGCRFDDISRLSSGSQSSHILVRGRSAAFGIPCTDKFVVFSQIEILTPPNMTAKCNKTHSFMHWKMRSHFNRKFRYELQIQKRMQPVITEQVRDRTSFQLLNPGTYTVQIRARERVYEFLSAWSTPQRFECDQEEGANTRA

[14] = target: T8, biotinylated extracellular domain of …; test: SPR (ProteOn XPR36), target on GLC chip
[15] = target: T6, extracellular domain of human CD70 (SEQ …); test: SPR (ProteOn XPR36), target on GLC chip, DARPin as analyte

T1 sequence (P20138 18-259 limits assumed): as the sequence (P20138 18-259 R69G) above, with G52R counted along it

B1: DARPin® protein #22 (designed binder)
chain: DLGKKLLEAARAGQDDEVRELLKAGADVNAKDKDGYTPLHLAAREGHLEIVEVLLKAGADVNAKDKDGYTPLHLAAREGHLEIVEVLLKAGADVNAQDKSGKTPADLAADAGHEDIAEVLQKAAGSPTPTPTTPTPTPTTPTPTPTGSDLGDKLLLAATSGQDDEVRILLAAGADVNAKDYDGDTPLHLAADEGHLEIVEVLLKAGADVNAKDYSGSTPLHAAAAYGHLEIVEVLLKAGADVNAQDVFGYTPADLAAYVGHEDIAEVLQKAAGSPTPTPTTPTPTPTTPTPTPTGSDLGQKLLEAAWAGQDDEVRILLAAGADVNAKNSRGWTPLHTAAQTGHLEIFEVLLKAGADVNAKNDKRVTPLHLAAALGHLEIVEVLLKAGADVNARDSWGTTPADLAAKYGHGDIAEVLQKLA
notes: also called Ni2C-αCD33-αCD3
koff [1]: 0.01 s⁻¹
binding result [2]: no binding
Kd [3]: 15 nM

B2: DARPin® protein #21 (designed binder)
chain: DLGKKLLEAARAGQDDEVRILMANGADVNALDWLGHTPLHLAAYEGHLEIVEVLLKNGADVNAIDDNNGFTPLHLAAIDGHLEIVEVLLKNGADVNAQDKFGKTAFDISIDNGNEDLAEILQKAAGSPTPTPTTPTPTPTTPTPTPTGSDLGKKLLEAARAGQDDEVRELLKAGADVNAKDKDGYTPLHLAAREGHLEIVEVLLKAGADVNAKDKDGYTPLHLAAREGHLEIVEVLLKAGADVNAQDKSGKTPADLAADAGHEDIAEVLQKAAGSPTPTPTTPTPTPTTPTPTPTGSDLGQKLLEAAWAGQDDEVRILLAAGADVNAKNSRGWTPLHTAAQTGHLEIFEVLLKAGADVNAKNDKRVTPLHLAAALGHLEIVEVLLKAGADVNARDSWGTTPADLAAKYGHGDIAEVLQKLA
notes: also called αCD123-Ni2C-αCD3
koff [4]: 0.06 s⁻¹
binding result [5]: no binding
Kd [6]: 2.2 nM

B3: DARPin® protein #2 (designed binder)
chain: MRGSHHHHHHDLGQKLLEAAWAGQDDEVRELLKAGADVNAKNSRGWTPLHTAAQTGHLEIFEVLLKAGADVNAKDDKGVTPLHLAAALGHLEIVEVLLKAGADVNAQDSWGTTPADLAAKYGHEDIAEVLQKAA
notes: CD3-specific ankyrin repeat domain
binding result [7]: binds

B4: DARPin® protein #15 (designed binder)
chain: DLGDKLLLAATSGQDDEVRILLAAGADVNAKDYDGDTPLHLAADEGHLEIVEVLLKAGADVNAKDYSGSTPLHAAAAYGHLEIVEVLLKAGADVNAQDVFGYTPADLAAYVGHEDIAEVLQKAA
notes: CD33-specific domain; screened as crude extract of a His-tagged clone (vector pMPAG06)
binding result [8]: binds

B5: DARPin® protein #6 (designed binder)
chain: DLGKKLLEAARAGQDDEVRILMANGADVNALDWLGHTPLHLAAYEGHLEIVEVLLKNGADVNAIDDNNGFTPLHLAAIDGHLEIVEVLLKNGADVNAQDKFGKTAFDISIDNGNEDLAEILQKAA
notes: CD123-specific domain
binding result [9]: binds

B6: DARPin® protein #34 (designed binder)
chain: DLGKKLLEAALEGQLDEVRELLKAGADVNAKDQEGYTPLHLAAALGHLEIVEVLLKAGADVNAKDSIGRTPLHLAAYKGHLEIVEVLLKAGADVNAQDLLGETPADLAAEQGHQDIAEVLQKAA
notes: CD123-specific ankyrin repeat domain; not shown: N-terminal His-tag
binding result [10]: no binding (tested: 100 nM (highest concentration))
binding result [11]: no binding (tested: 100 nM (highest concentration))
binding result [12]: no binding (tested: 100 nM (highest concentration))
Kd [13]: 8.6 nM

B7: DARPin® protein #33 (designed binder)
chain: DLGYKLLQAAYDGQLDEVRILLKAGADVNAKDSRGQTPLHYAASIGHLEIVEVLLKAGADVNAKDDHGWTPLHLAAWSGHLEIVEVLLKAGADVNAQDQEGTTPADLAAVQGHQDIAEVLQKAA
notes: CD70-specific ankyrin repeat domain; not shown: N-terminal His-tag
binding result [10]: no binding (tested: 100 nM (highest concentration))
binding result [14]: no binding (tested: 100 nM (highest concentration))
binding result [12]: no binding (tested: 100 nM (highest concentration))
Kd [15]: 0.18 nM
